Data: PMC7484176

Target: wild-type FtrA from Brucella abortus 2308 (Brucella abortus 2308)
Experiment: SEC

“wild-type FtrA from Brucella abortus 2308 (natural protein)” was tested, and the stoichiometry N was 2.
